{
  "source": "FireProtDB (doi:10.1111/febs.14143)",
  "parents": {"B1": {"name": "Guanine nucleotide-binding protein G(i) subunit alpha-3, P08753 (parent)", "chain": "MGCTLSAEDKAAVERSKMIDRNLREDGEKAAKEVKLLLLGAGESGKSTIVKQMKIIHEDGYSEDECKQYKVVVYSNTIQSIIAIIRAMGRLKIDFGEAARADDARQLFVLAGSAEEGVMTSELAGVIKRLWRDGGVQACFSRSREYQLNDSASYYLNDLDRISQTNYIPTQQDVLRTRVKTTGIVETHFTFKELYFKMFDVGGQRSERKKWIHCFEGVTAIIFCVALSDYDLVLAEDEEMNRMHESMKLFDSICNNKWFTDTSIILFLNKKDLFEEKIKRSPLTICYPEYTGSNTYEEAAAYIQCQFEDLNRRKDTKEVYTHFTCATDTKNVQFVFDAVTDVIIKNNLKECGLY"}},
  "note": "Several values for one entry are separate records, joined by “and”; a condition that tells them apart may be missing. Equal entries are not always repeated.",
  "data": [
    {"variants_of": "B1", "conditions": "Rattus norvegicus; pH 7.5; Thermal; DSC; HEPES; NaCl MgCl2 50000 2000; transition: 2; reversible: yes; structure 6MHE; whole UniProt chain shown", "units": {"Tm": "°C"}, "values": [
      {"variant": "T329A", "Tm": 65}
    ]},
    {"variants_of": "B1", "conditions": "Rattus norvegicus; pH 7.5; Thermal; Fluorescence; HEPES; NaCl MgCl2 50000 2000; transition: 2; reversible: yes; structure 6MHE; whole UniProt chain shown", "values": [
      {"variant": "A326S", "Tm": "64 °C and 62.5 °C"},
      {"variant": "G203A", "Tm": "57.5 °C"}
    ]}
  ]
}
